This is an account of results in patent US20240116985A1 (published 2024).

A word on the IC50: it is the concentration that gives 50% inhibition. Higher therefore signals weaker potency.

Starred links: 1 amine or outer side, 2 acyl side, 3 side chain; linkers in the order of their positions; H or OH if unused. Positions of bridges follow the written chain, without caps; N, C: chain ends. Non-standard residues stand in square brackets, D forms with d. Primed or numbered codes have the meaning given here. PyrS2″ = (S)-3-amino-1-((pent-4-en-1-yloxy)carbonyl)pyrrolidine-3-carboxylic acid (stapling residue), C=CCCCOC(=O)N1CC[C@@](N[*:1])(C(=O)[*:2])C1; SeN″ = (S)-5-(((allyloxy)carbonyl)(methyl)amino)-2-amino-2-methylpentanoic acid (stapling residue), C=CCOC(=O)N(C)CCC[C@](C)(N[*:1])C(=O)[*:2]; B5(16) = 2-amino-2-(pent-4-en-1-yl)hept-6-enoic acid = 2,2-bis(4-pentenyl)glycine (stitching residue), C=CCCCC(CCCC=C)(N[*:1])C(=O)[*:2]; B5(23) = 2-amino-2-(pent-4-en-1-yl)hept-6-enoic acid (2,2-bis(4-pentenyl)glycine), stitching residue, C=CCCCC(CCCC=C)(N[*:1])C(=O)[*:2]; B5(4) = 2,2-bis(4-pentenyl)glycine = 2-amino-2-(pent-4-en-1-yl)hept-6-enoic acid (stitching residue), C=CCCCC(CCCC=C)(N[*:1])C(=O)[*:2]; B5(9) = 2-amino-2-(pent-4-en-1-yl)hept-6-enoic acid (2,2-bis(4-pentenyl)glycine), C=CCCCC(CCCC=C)(N[*:1])C(=O)[*:2]; B5(19) = 2-amino-2-(pent-4-en-1-yl)hept-6-enoic acid (bis(4-pentenyl)glycine), C=CCCCC(CCCC=C)(N[*:1])C(=O)[*:2]; 23FF = 2,3-difluoro-L-phenylalanine, O=C([C@H](Cc1cccc(F)c1F)N[*:1])[*:2]; d(βAsp) = O=C(O)[C@@H](CC(=O)[*:2])N[*:1]; Phe(3-F) = N[C@@H](Cc1cccc(F)c1)C(=O)O; His(τ-Me) = Cn1cnc(C[C@H](N)C(=O)O)c1; Bta = N[C@@H](Cc1csc2ccccc12)C(=O)O; αAllylPro = C=CC[C@@]1(C(=O)O)CCCN1; tBuAla = CC(C)(C)C[C@H](N)C(=O)O; 3Thi = N[C@@H](Cc1ccsc1)C(=O)O; S8 = C=CCCCCCC[C@](C)(N)C(=O)O; 34ClF = not defined here

The target in assay [1] is T1, B-cat-Halo (beta-catenin HaloTag construct expressed in HEK293 cells) (UniProt P35222 1-781).
T1 sequence (looked up): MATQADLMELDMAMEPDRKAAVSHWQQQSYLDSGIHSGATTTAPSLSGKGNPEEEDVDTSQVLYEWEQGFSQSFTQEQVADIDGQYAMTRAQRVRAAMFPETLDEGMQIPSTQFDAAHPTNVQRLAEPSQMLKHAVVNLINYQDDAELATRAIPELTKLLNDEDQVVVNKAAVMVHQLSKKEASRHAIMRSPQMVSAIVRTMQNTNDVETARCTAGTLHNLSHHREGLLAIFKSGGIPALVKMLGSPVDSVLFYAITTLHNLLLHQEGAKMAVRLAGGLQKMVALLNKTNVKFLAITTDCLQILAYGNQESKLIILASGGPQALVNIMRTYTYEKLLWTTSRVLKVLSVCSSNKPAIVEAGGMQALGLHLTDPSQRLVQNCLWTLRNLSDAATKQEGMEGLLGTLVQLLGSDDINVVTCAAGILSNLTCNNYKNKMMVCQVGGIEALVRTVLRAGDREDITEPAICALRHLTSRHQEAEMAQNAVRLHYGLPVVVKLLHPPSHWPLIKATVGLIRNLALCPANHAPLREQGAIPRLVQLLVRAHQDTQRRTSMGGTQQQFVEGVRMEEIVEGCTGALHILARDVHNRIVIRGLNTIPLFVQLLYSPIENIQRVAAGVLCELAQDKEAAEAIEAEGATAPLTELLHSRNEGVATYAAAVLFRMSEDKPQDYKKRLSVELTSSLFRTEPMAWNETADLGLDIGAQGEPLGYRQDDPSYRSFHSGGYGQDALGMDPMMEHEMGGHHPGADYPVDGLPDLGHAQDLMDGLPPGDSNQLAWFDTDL
Put plainly: cell-based or functional assay.

Assay [2] has as its target T2, full-length beta-Catenin (Uniprot ID P35222) (Homo sapiens (Human), UniProt P35222 1-781).
T2 construct: The assay text says full-length beta-Catenin (Uniprot ID P35222); also called bCat; B-Catenin
T2 sequence: T1 sequence (looked up)
Put plainly: fluorescence polarization competition; full-length beta-catenin with 5FAM-labeled TCF4 (residues 10-53) probe as competitor. The protocol:
The plate was incubated protected from light for 60 minutes at 20° C. prior to read. Reads were performed on a CLARIOstar plate reader (BMG Labtech) in duplicate, and data were fitted to a 1:1 binding model with hill slope using an in-house script. All provided concentrations are final concentrations.

Assay [3] concerns the target T3, full-length beta-Catenin (Uniprot ID P35222) (Homo sapiens (Human), UniProt P35222 1-781).
T3 construct: also called bCat; B-Catenin
T3 sequence: T1 sequence (looked up)
Put plainly: fluorescence polarization competition; full-length beta-catenin, competitor 5FAM-TCF4(10-53) probe. The essentials:
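Plate incubated 60 minutes at 20° C. protected from light before reading. Concentrations given are final.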
(In general: Polarisation of emitted light reports the rotation of a fluorescent probe.)

B1: I-2183 (peptide)
peptide: Ac-[αAllylPro]D[tBuAla][B5(4)]DDAAFL[PyrS2″][3Thi][34ClF]Q-NH2
modifications: staple 1-4, 4-11; reading uncertain; also: printed as Ac-PL3-Asp-Npg-B5-Asp-Asp-Ala-Ala-Phe-Leu-PyrS2-3Thi-34C1F-Gln-NH2
B1: the “NanoBRET Abs IC50” value in assay [1] was found to be 5000 nM.

B2: I-388 (peptide)
peptide: XDAXDEAAFVXFXQ
modifications: not fully specified; N-terminal Ac; PL3 at 1, B5 at 4, S8 at 11 (stapled 1-4 and 4-11 by olefin metathesis); 23FF at 12; BztA at 13; C-terminal NH2
notes: Stapled peptide; also called Ac-PL3-Asp-Ala-B5-Asp-Glu-Ala-Ala-Phe-Val-S8-23FF-BztA-Gln-NH2
In the case of B2, the 50% inhibitory concentration (IC50) in assay [2] worked out at 5000 nM.

B3: I-403 (peptide)
peptide: Ac-[αAllylPro]DA[B5(16)]D[His(τ-Me)]AAFV[S8][Phe(3-F)][Bta]Q-NH2
modifications: staple 1-4, 4-11; not fully specified
notes: Stapled peptide; also called Ac-PL3-Asp-Ala-B5-Asp-1meH-Ala-Ala-Phe-Val-S8-3FF-BztA-Gln-NH2
In assay [2], B3 yielded an IC50 of 2130 nM.

B4: I-399 (peptide)
peptide: XDAXDHAAFQXFXQ
modifications: not fully specified; N-terminal Ac; PL3 at 1, B5 at 4, S8 at 11 (stapled 1-4 and 4-11 by olefin metathesis); 3FF at 12; BztA at 13; C-terminal NH2
notes: Stapled peptide; also called Ac-PL3-Asp-Ala-B5-Asp-His-Ala-Ala-Phe-Gln-S8-3FF-BztA-Gln-NH2
In turn, B4 had a half-inhibitory concentration (IC50) in assay [2] of 2500 nM.

B5: I-407 (peptide)
peptide: Ac-[αAllylPro]DI[B5(23)]DEAAFQ[S8]F[Bta]Q-NH2
modifications: staple 1-4, 4-11
notes: Stapled peptide; also called Ac-PL3-Asp-Ile-B5-Asp-Glu-Ala-Ala-Phe-Gln-S8-Phe-BztA-Gln-NH2
B5 displayed an IC50 in assay [2] of 30 nM.

B6: I-406 (peptide)
peptide: Ac-[αAllylPro]DA[B5(23)]DEAAFQ[S8]F[Bta]Q-NH2
modifications: staple 1-4, 4-11
notes: Stapled peptide; also called Ac-PL3-Asp-Ala-B5-Asp-Glu-Ala-Ala-Phe-Gln-S8-Phe-BztA-Gln-NH2
In assay [2], B6 displayed an IC50 of 94 nM.

B7: I-398 (peptide)
peptide: Ac-[αAllylPro]DA[B5(16)]DHAAFV[SeN″][Phe(3-F)][Bta]Q-NH2
modifications: staple 1-4, 4-11; not fully specified; printed as Ac-PL3-Asp-Ala-B5-Asp-His-Ala-Ala-Phe-Val-SeN-3FF-BztA-Gln-NH2
notes: Stapled peptide; also called Ac-PL3-Asp-Ala-B5-Asp-His-Ala-Ala-Phe-Val-SeN-3FF-BztA-Gln-NH2
Take B7: the IC50 in assay [2] was found to be 2160 nM.

B8: I-397 (peptide)
peptide: XDAXDHAAFVXFXQ
modifications: not fully specified; N-terminal Ac; PL3 at 1, B5 at 4, S8 at 11 (stapled 1-4 and 4-11 by olefin metathesis); 3FF at 12; BztA at 13; C-terminal NH2
notes: Stapled peptide; also called Ac-PL3-Asp-Ala-B5-Asp-His-Ala-Ala-Phe-Val-S8-3FF-BztA-Gln-NH2
In assay [2], B8 gave a half-inhibitory concentration (IC50) of 2230 nM.

B9: I-410 (peptide)
peptide: Ac-[αAllylPro]DV[B5(23)]DEAAFQ[S8]F[Bta]Q-NH2
modifications: staple 1-4, 4-11
notes: Stapled peptide; also called Ac-PL3-Asp-Val-B5-Asp-Glu-Ala-Ala-Phe-Gln-S8-Phe-BztA-Gln-NH2
Molecule B9 had an IC50 in assay [2] of 50 nM.

B10: I-400 (peptide)
peptide: Ac-[αAllylPro]DA[B5(16)]DHAAFQ[SeN″][Phe(3-F)][Bta]Q-NH2
modifications: staple 1-4, 4-11; not fully specified; printed as Ac-PL3-Asp-Ala-B5-Asp-His-Ala-Ala-Phe-Gln-SeN-3FF-BztA-Gln-NH2
notes: Stapled peptide; also called Ac-PL3-Asp-Ala-B5-Asp-His-Ala-Ala-Phe-Gln-SeN-3FF-BztA-Gln-NH2
B10 registered an IC50 in assay [2] of 3590 nM.

B11: I-396 (peptide)
peptide: Ac-[αAllylPro]DA[B5(9)]DHAAFV[S8][Phe(3-F)][Bta]Q-NH2
modifications: staple 1-4, 4-11; also: earlier eluting HPLC isomer, E/Z not assigned
notes: as for B8
B11: the half-inhibitory concentration (IC50) in assay [2] is 3430 nM.

B12: I-2182 (peptide)
peptide: Ac-[αAllylPro]D[tBuAla][B5(4)]DDAAFN[PyrS2″][3Thi][34ClF]Q-NH2
modifications: staple 1-4, 4-11; reading uncertain; also: printed as Ac-PL3-Asp-Npg-B5-Asp-Asp-Ala-Ala-Phe-Asn-PyrS2-3Thi-34C1F-Gln-NH2
Turning to B12, the “NanoBRET Abs IC50” value in assay [1] stood at 11100 nM.

B13: I-390 (peptide)
peptide: Ac-[αAllylPro]DA[B5(9)]DEAA[23FF]V[S8]F[Bta]Q-NH2
modifications: staple 1-4, 4-11; not fully specified; printed as Ac-PL3-Asp-Ala-B5-Asp-Glu-Ala-Ala-23FF-Val-S8-Phe-BztA-Gln-NH2
notes: Stapled peptide; also called Ac-PL3-Asp-Ala-B5-Asp-Glu-Ala-Ala-23FF-Val-S8-Phe-BztA-Gln-NH2
Regarding B13, the IC50 in assay [2] worked out at 3420 nM.
In the case of Ac-[αAllylPro][d(βAsp)]I[B5(9)]DEAAFQ[S8]F[Bta]Q-NH2 (staple 1-4, 4-11, Stapled peptide) [I-668], in assay [3], the IC50 was 675 nM.
The same measure, in the same setting: next, Ac-[αAllylPro]DI[B5(19)]DEAFFQ[S8]F[Bta]Q-NH2 (staple 1-4, 4-11, Stapled peptide) [I-660]: 544 nM.
